pKd: −log10 of the molar value.
What was measured:
[1] = target: biotinylated IgG; assay: BIAcore; half-life calculated as 0.693/koff/60
[2] = target: biotinylated IgG; assay: BIAcore, biotinylated IgG immobilised, mutein injected

2-aa-loop mutein (streptavidin, loop7-8 replaced by N G), sequence (P22629 other isoform, or with tags, fused parts or gaps mutant): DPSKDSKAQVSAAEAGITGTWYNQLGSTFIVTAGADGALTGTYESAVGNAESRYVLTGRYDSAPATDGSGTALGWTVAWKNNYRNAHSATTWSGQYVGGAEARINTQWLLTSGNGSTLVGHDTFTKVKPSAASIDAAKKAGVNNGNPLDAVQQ
6-aa-loop mutein (streptavidin, loop7-8 replaced by D S N G S G), sequence (P22629 other isoform, or with tags, fused parts or gaps mutant): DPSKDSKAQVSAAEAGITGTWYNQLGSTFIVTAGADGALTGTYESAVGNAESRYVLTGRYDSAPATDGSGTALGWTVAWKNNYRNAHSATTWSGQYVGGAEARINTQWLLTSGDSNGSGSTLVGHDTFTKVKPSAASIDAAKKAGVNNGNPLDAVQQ

Row | Substance | t1/2 [1] [h] | pKd [2] | koff [2] [s⁻¹] | kon [2] [M⁻¹ s⁻¹]
1 | 2-aa-loop mutein (streptavidin, loop7-8 replaced by N G) (from UniProt P22629 25-183) | 2.75 | 8.95 | 7.02e-05 | 63000
2 | 6-aa-loop mutein (streptavidin, loop7-8 replaced by D S N G S G) (from UniProt P22629 25-183) | 2.53 | 8.50 | 7.59e-05 | 24300
3 | 8-aa-loop-H127C mutein (streptavidin, loop7-8 replaced by D S S N G S D G, with H127C) (from UniProt P22629 25-183) | 0.45 | 7.72 | 0.000428 | 22100
4 | ΔW-HC mutein (streptavidin with Trp-120 deleted and H127C) (from UniProt P22629 25-183) | 0.482 | 8.09 | 0.0004 | 49600

Reference: patent US20130035471A1
